Laboratory results published in PMC7556843 (2020).

Target: Ub2 (Homo sapiens)
Experiment: ITC; values taken from Vincendeau et al.

B1: Human NEMO258-350 C347S (NEMO UBAN domain) (domain or fragment)
chain: MQLEDLKQQLQQAEEALVAKQEVIDKLKEEAEQHKIVMETVPVLKAQADIYKADFQAERQAREKLAEKKELLQEQLEQLQREYSKLKASSQES
modifications: linear (M1-linked) diubiquitin, two 76-residue units fused head to tail; the N-terminal His-tag present in the SAXS sample is left out
B1 showed a Kd of 1810 nM.
